Results from the nanobody polyreactivity screen of Harvey et al. (2022).

Experiment: yeast display, Sf9 membrane polyspecificity reagent, FACS + sequencing; frameworks hold sequencing errors
Method in brief: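 A nanobody's polyreactivity label depends on the gate it was sorted from. Yeast display cells were stained with 10% biotinylated, detergent-solubilized Sf9 membrane reagent for 1 hour at 4 °C, enriched on streptavidin microbeads and sorted by FACS. The low and high (top ~1%) gates were set on anti-HA fluorescence for expression and streptavidin fluorescence for reagent binding.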

## QVQLVESGGGLVQAGGSLRLSCAASGIIFGFNAMGWYRQAPGKERELVAAINGDDSTYYADSVKGRFTISRDTAKNTVYFQMNSLKPEDTAVYYSAARYYRYLTFTGELLVYYWGQGTQVTVSS
  polyreactivity (PSR sort gate): low polyreactivity

## QVQLVESGGGLVQAGGSLRLSCAASGIIFGFNAMGWYRQAPGKETELVAAINGDDSTYYADSVKGRFTISRDNAKNTVYLQMNSLKPEDTAVYYCAARYYRYLTFTGELLVYYWGQGTQVTVSS
  polyreactivity (PSR sort gate): low polyreactivity

## QVQLVESGGGLVQAGGSLRLSCAASGIIFGFYAMGWYRQAPGKERELVAAITSGGRTDYADSVKGRFTISRDNAKNTVYLQMNSLKPEDTAVYYCAAEFTYYGARWGYLGDLDYWGQGTQVTVSS
  polyreactivity (PSR sort gate): high polyreactivity

## QVQLVESGGGLVQAGGSLRLSCAASGIIFGGNVMGWYRQAPGKERELVAAISGGGGRTHYADSVKGRFTISRDNAKNTVYLQMNSLKPEDTAVYYCAVVTRYRYDYWGQGTQVTVSS
  polyreactivity (PSR sort gate): high polyreactivity

## QVQLVESGGGLVQAGGSLRLSCAASGIIFGIYDMGWYRQAPGKESELVAAIRRSGGSTYYADSVKGRFTISRDNAKNTVYLQMNSLKPEDTAVYYCAATRHSRVRGGDYWGQGTQVTVSS
  polyreactivity (PSR sort gate): low polyreactivity

## QVQLVESGGGLVQAGGSLRLSCAASGIIFGKYDMGWYRQAPGKERELVAAITSGTSTNYADSVKGRFTISRDNAKNTVYLQMNSLKPEDTAVYYCAADVYLYYPYFGHRRYNYWGQGTQVTVSS
  polyreactivity (PSR sort gate): high polyreactivity

## QVQLVESGGGLVQAGGSLRLSCAASGIIFGLNDMGWYRQAPGKERELVADITYSGGSTYYADSVKGRFTISRDNAKNTVYLQMNSLKPEDTAVYYCAADEVSFWGYIYDYWGQGTQVTVSS
  polyreactivity (PSR sort gate): high polyreactivity

## QVQLVESGGGLVQAGGSLRLSCAASGIIFGRNAMGWYRPAPGKERELVAVITGGGGRTYYADSVKGRFTISRDNAKKTVYLQMNSLKPEDTAVYYCNKDYRRNLAYFKEPGVPVDYWGQGTQVTVSS
  polyreactivity (PSR sort gate): low polyreactivity

## QVQLVESGGGLVQAGGSLRLSCAASGIIFGRYAMGWYRQAPGKERELVAAINASGGSTYYADSVKGRFTISRDNAKNTVYLQMNSLKPEDTAVYYCATRSTRSRTSGYYYWGQGTQVTVSS
  polyreactivity (PSR sort gate): high polyreactivity

## QVQLVESGGGLVQAGGSLRLSCAASGIIFGRYAMGWYRQAPGKERELVAAISTSGGSTYYADSVKGRFTISRDNAKNTVYLQMNSLKPEDTAVYYCAARHREAQRRYDYWGQGTQVTVSS
  polyreactivity (PSR sort gate): high polyreactivity

## QVQLVESGGGLVQAGGSLRLSCAASGIIFGRYTMGWSRQAPGKERELVAAITSSGITYYADSVKGRFTISRDNAKNTVYLQMNSLKPEDTAVYYCIADYSSPGYYWPYDYWGQGTQVTVSS
  polyreactivity (PSR sort gate): low polyreactivity

## QVQLVESGGGLVQAGGSLRLSCAASGIIFGRYTMGWYRQAPGKERELVAAITSSGITYYADSVKGRFTISRDNAKNTDYLQMNSLKPEDTAVYYCNADYSIPGYYWPYDYWGQGTQVTVSS
  polyreactivity (PSR sort gate): low polyreactivity

## QVQLVESGGGLVQAGGSLRLSCAASGIIFGTNAMGWYRQAPGKERELVAYITSGGSTYADSVKGRFTISRDKAKNTVYLQMNSLKPEDTAVSYCNADTGKWGGNGWYEFDYWGQGTQVTVSS
  polyreactivity (PSR sort gate): low polyreactivity

## QVQLVESGGGLVQAGGSLRLSCAASGIIFHPYAMGWYRQAPGKERELVAVITWPGDSTYYADSVKGRFTISRDNAKNTVYLQMNSLKPEDTAVYYCNAAVEGSLNGYEYWGQGTQVTVSS
  polyreactivity (PSR sort gate): low polyreactivity

## QVQLVESGGGLVQAGGSLRLSCAASGIIFHYYAMGWYRQAPGKERDLVAAISGSGGSTYYADSVKGRFTISRDNAKNTVFLQMNSLKPEDTAVYYCAAILWGGGGYWGQGTQVTVSS
  polyreactivity (PSR sort gate): high polyreactivity

## QVQLVESGGGLVQAGGSLRLSCAASGIIFIAYAMGWYRQAPGKERELVADISIGGSTNYADSVKGRFTISRDNAKNTVYLQMNSQKPEDTAVYYCNAGGGFYGSTVEHDYWGQGTQVTVSS
  polyreactivity (PSR sort gate): low polyreactivity

## QVQLVESGGGLVQAGGSLRLSCAASGIIFIFYDMGWYRQAPGKERELVATITSGTNTDADSVKGRFTISRDNAKNTVYLQMNSLKPEDTAVYYCAAGFSPASQLDYWGQGTQVTVSS
  polyreactivity (PSR sort gate): low polyreactivity

## QVQLVESGGGLVQAGGSLRLSCAASGIIFIGNAMGWYRQAPGKERELVAAITYTGGSTYYADSVKGRFTISRDNAKNTVYLQMNSLKPEDTAVYYCAVDRTHLEDDYWGQGTQVTVSS
  polyreactivity (PSR sort gate): low polyreactivity

## QVQLVESGGGLVQAGGSLRLSCAASGIIFIKYAMGWYRQAPGKERELVAAITSGGSTHYADSVKGRFTISRDNAKNTVYLQMNSLKPEDTAVYYCNADILRHVAYFKDRYQAGSYWGQGTQVTVSS
  polyreactivity (PSR sort gate): low polyreactivity

## QVQLVESGGGLVQAGGSLRLSCAASGIIFITYAMGWYRQAPGKERELVAAITNSGGGTYYADSVKGRFTNSRDNAKNTVYLQMNSLKPEDTAVYYCAARKTAYGYRYDYWGQGTQVTVSS
  polyreactivity (PSR sort gate): high polyreactivity

## QVQLVESGGGLVQAGGSLRLSCAASGIIFIYYDMGWYRQAPGKERELVAAISRSGGSTYYADSVKGRFTISRDIAKNTFYLQMNSLKPEDTAVYYCAARRITSTDEYYWGHGTQVTVSS
  polyreactivity (PSR sort gate): high polyreactivity

## QVQLVESGGGLVQAGGSLRLSCAASGIIFIYYTMGWYRQSPGKERELVAVITTSGDGTYYADSVKGRFTISRDNAKNTVYLQMNSLKPEDTAVYYCAASYSTWVSTRNDYWGQGTQVTVSS
  polyreactivity (PSR sort gate): low polyreactivity

## QVQLVESGGGLVQAGGSLRLSCAASGIIFKGYDMGWYRQAPGKERELVAAISSGSTNYADSVKGRFTISRDNAKNTVYLQMNSLKPEDTAVYYCNKDSISYTWGYDYWGQGTQVTVSS
  polyreactivity (PSR sort gate): low polyreactivity

## QVQLVESGGGLVQAGGSLRLSCAASGIIFKLNAMGWYRQAPGKEREFVAAITRRGGITFYADSVKGRFTISRDNAKNTVYLQMNSLKPEDTAVYYCAASPGRRRRPYASLIRYDYWGQGTQVTVSS
  polyreactivity (PSR sort gate): high polyreactivity

## QVQLVESGGGLVQAGGSLRLSCAASGIIFKNYAMGWYRQAPGKERELVAAISWRGGRTYYADSVKGRFTISRDNAKNTVYLQMNSLIPEDTAVYYCAKELYVSYRGGPWVDYWGQGTQVTVSS
  polyreactivity (PSR sort gate): high polyreactivity

## QVQLVESGGGLVQAGGSLRLSCAASGIIFKQNVMGWYRQAPGKERELVAAITSRDGSTYYADSVKGRFTISRDNAKNTVYLQMNSLKPEDTAVYYCAAKWRSPRYYLYGYWGQGTQVTVSS
  polyreactivity (PSR sort gate): high polyreactivity

## QVQLVESGGGLVQAGGSLRLSCAASGIIFKSYTMGWYRQAPGKERELVAAINSSGDRTYYADSVKGRFTISRDNAKNTVYLQMNSLKPEDTAVDYCAAAPVKKSRFRYDYWGQGTQVTVSS
  polyreactivity (PSR sort gate): high polyreactivity

## QVQLVESGGGLVQAGGSLRLSCAASGIIFKYYAMGWSRQAPGKERELVAAISWTGDSTYADSVKGRFTISRDNAKNTVYLQMNSLKPEDTAVYYCAVAFRRVRSLGEGYWGQGTQVTVSS
  polyreactivity (PSR sort gate): low polyreactivity

## QVQLVESGGGLVQAGGSLRLSCAASGIIFLDYVMGWYRQAPGKERELVAAINSGGSTYYADSVKGRFTISRDNAKNTVYLQMNSLKPEDTAVYYCAADDYYKFDYWGQGTQVTVSS
  polyreactivity (PSR sort gate): low polyreactivity

## QVQLVESGGGLVQAGGSLRLSCAASGIIFLNYAMGWYRQAPGKERELDAGITGRGGITYYTDSVKGRFTISRDNAKNTVYLQMNSLKPEDTAVYYCAARRYRFAGDYRMYYWGQGTQVTVSS
  polyreactivity (PSR sort gate): high polyreactivity

## QVQLVESGGGLVQAGGSLRLSCAASGIIFLWYAMGWYRQAPGKERELVAAITSGGSTYYADSVKGRFTISRDNAKNTVYLQMNSLKPEDTAVYYCAAVNGWRRVKRFDYWGQGTQVTVSS
  polyreactivity (PSR sort gate): high polyreactivity
